# Values quoted from earlier work in paper PMC5013049.
# Columns and labels:
# [1] = molecular target: ExsD (Pseudomonas aeruginosa) (UniProt Q9I321); experiment: ITC
# [2] = molecular target: ExsE (Pseudomonas aeruginosa) (UniProt Q9I322); experiment: ITC
# Chain of UniProt Q9I322 (Q9I322 whole entry): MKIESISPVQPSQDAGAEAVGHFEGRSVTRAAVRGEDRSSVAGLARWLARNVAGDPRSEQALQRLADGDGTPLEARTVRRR
# Chain of UniProt Q9I321 (Q9I321 whole entry): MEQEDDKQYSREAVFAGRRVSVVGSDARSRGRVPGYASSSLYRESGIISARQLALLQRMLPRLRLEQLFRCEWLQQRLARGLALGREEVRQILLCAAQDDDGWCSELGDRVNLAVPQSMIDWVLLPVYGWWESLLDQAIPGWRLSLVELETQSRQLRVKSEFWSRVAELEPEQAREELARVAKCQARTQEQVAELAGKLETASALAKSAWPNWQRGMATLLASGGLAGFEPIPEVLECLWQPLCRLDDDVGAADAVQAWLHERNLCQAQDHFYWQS
substance,measurement,setting,value
ExsC (from UniProt P26995),Kd,[1],18 nM
same,Kd,[2],1 nM
